Results: publication doi:10.1101/2021.04.12.439405 (bioRxiv, 2021)

Experiments:
Experiment in all cases: native MS
[1] = target: MukB^N (MukB Neck) (E. coli)
[2] = target: MukB^HN (MukB Head-Neck) (E. coli)
[3] = target: the molecule itself

Molecule “Acyl Carrier Protein (AcpP), co-purified with MukB proteins (from UniProt P0A6A8 1-78) (natural protein)” has a stoichiometry N [1] of 1 and a stoichiometry N [2] of 1.

Work on MukB^N (MukB Neck) (domain or fragment) yielded a stoichiometry N [1] of 2.

B1: MukB-His (wild type MukB) (natural protein, E. coli, UniProt P22523 1-1486, looked up)
chain: MIERGKFRSLTLINWNGFFARTFDLDELVTTLSGGNGAGKSTTMAAFVTALIPDLTLLHFRNTTEAGATSGSRDKGLHGKLKAGVCYSMLDTINSRHQRVVVGVRLQQVAGRDRKVDIKPFAIQGLPMSVQPTQLVTETLNERQARVLPLNELKDKLEAMEGVQFKQFNSITDYHSLMFDLGIIARRLRSASDRSKFYRLIEASLYGGISSAITRSLRDYLLPENSGVRKAFQDMEAALRENRMTLEAIRVTQSDRDLFKHLISEATNYVAADYMRHANERRVHLDKALEFRRELHTSRQQLAAEQYKHVDMARELAEHNGAEGDLEADYQAASDHLNLVQTALRQQEKIERYEADLDELQIRLEEQNEVVAEAIERQQENEARAEAAELEVDELKSQLADYQQALDVQQTRAIQYNQAIAALNRAKELCHLPDLTADCAAEWLETFQAKELEATEKMLSLEQKMSMAQTAHSQFEQAYQLVVAINGPLARNEAWDVARELLREGVDQRHLAEQVQPLRMRLSELEQRLREQQEAERLLADFCKRQGKNFDIDELEALHQELEARIASLSDSVSNAREERMALRQEQEQLQSRIQSLMQRAPVWLAAQNSLNQLSEQCGEEFTSSQDVTEYLQQLLEREREAIVERDEVGARKNAVDEEIERLSQPGGSEDQRLNALAERFGGVLLSEIYDDVSLEDAPYFSALYGPSRHAIVVPDLSQVTEHLEGLTDCPEDLYLIEGDPQSFDDSVFSVDELEKAVVVKIADRQWRYSRFPEVPLFGRAARESRIESLHAEREVLSERFATLSFDVQKTQRLHQAFSRFIGSHLAVAFESDPEAEIRQLNSRRVELERALSNHENDNQQQRIQFEQAKEGVTALNRILPRLNLLADDSLADRVDEIRERLDEAQEAARFVQQFGNQLAKLEPIVSVLQSDPEQFEQLKEDYAYSQQMQRDARQQAFALTEVVQRRAHFSYSDSAEMLSGNSDLNEKLRERLEQAEAERTRAREALRGHAAQLSQYNQVLASLKSSYDTKKELLNDLQRELQDIGVRADSGAEERARIRRDELHAQLSNNRSRRNQLEKALTFCEAEMDNLTRKLRKLERDYFEMREQVVTAKAGWCAVMRMVKDNGVERRLHRRELAYLSADDLRSMSDKALGALRLAVADNEHLRDVLRMSEDPKRPERKIQFFVAVYQHLRERIRQDIIRTDDPVEAIEQMEIELSRLTEELTSREQKLAISSRSVANIIRKTIQREQNRIRMLNQGLQNVSFGQVNSVRLNVNVRETHAMLLDVLSEQHEQHQDLFNSNRLTFSEALAKLYQRLNPQIDMGQRTPQTIGEELLDYRNYLEMEVEVNRGSDGWLRAESGALSTGEAIGTGMSILVMVVQSWEDESRRLRGKDISPCRLLFLDEAARLDARSIATLFELCERLQMQLIIAAPENISPEKGTTYKLVRKVFQNTEHVHVVGLRGFAPQLPETLPGTDEAPSQAS
B1: binds [3].
